This is an account of results in paper PMC4059961, “The transcriptional network of WRKY53 in cereals links oxidative responses to biotic and abiotic stress inputs”.

This data set addresses SUMO::TaWRKY53 (Triticum aestivum L. cv. Gamtoos-R). In words: EMSA; Probe EMSA: 10 mM Tris, 50 mM KCl, 1 mM DTT, pH 7.5, 20 min, room temperature; 1-kb EMSA: 10 mM Tris, 100 mM KCl, 1 mM EDTA, 0.1 mM DTT, 5% glycerol, 0.01 mg/mL BSA, pH 7.5, room temperature. To be noted: protein: recombinant; tags: N-terminal 6xHis-SUMO; label: biotin; blunt.

Sequence of SUMO::TaWRKY53 (Triticum aestivum L. cv. Gamtoos-R) (chain, as listed by the source): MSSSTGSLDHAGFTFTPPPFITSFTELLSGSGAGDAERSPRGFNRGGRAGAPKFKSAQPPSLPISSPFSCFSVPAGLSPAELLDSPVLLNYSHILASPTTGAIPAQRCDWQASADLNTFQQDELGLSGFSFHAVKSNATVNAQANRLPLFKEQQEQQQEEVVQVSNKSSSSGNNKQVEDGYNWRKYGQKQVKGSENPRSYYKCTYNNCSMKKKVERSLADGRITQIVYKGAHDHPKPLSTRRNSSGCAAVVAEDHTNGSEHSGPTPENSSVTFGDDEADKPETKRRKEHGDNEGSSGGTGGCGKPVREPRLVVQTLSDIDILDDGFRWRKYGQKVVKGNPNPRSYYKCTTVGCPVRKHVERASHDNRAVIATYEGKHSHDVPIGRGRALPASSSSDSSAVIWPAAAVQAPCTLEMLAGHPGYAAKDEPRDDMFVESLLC

B1: ORK10 promoter probe (dsDNA)
DNA 1: ATCTGGTCAACAATGTATTACACACTGCTTTGACTACTTCCCCCAAAAAAGTACACACTGCTTTGACTCAGGTCAAACTT
DNA 2: AAGTTTGACCTGAGTCAAAGCAGTGTGTACTTTTTTGGGGGAAGTAGTCAAAGCAGTGTGTAATACATTGTTGACCAGAT
B1: the binding result is recorded as “binds”.

B2: POC1 promoter probe (dsDNA)
DNA 1: ACGTAAATTTTTTGAATAAGACAAATGGTCAAACATGTAAGAAAAGAAAGTCAACGGCGTCATCTATTTAAAAAACGGAT
DNA 2: ATCCGTTTTTTAAATAGATGACGCCGTTGACTTTCTTTTCTTACATGTTTGACCATTTGTCTTATTCAAAAAATTTACGT
B2: the binding result was “binds”.
